These results are taken from the DeepSol protein solubility set.

The nature of the data set: soluble on expression in E. coli; label from the status in PepcDB or PDB records.
For the sequence “MEIRYAKEEEIESIKDIWSYCFNDTESFMKYYFNDKYKSENTVVALDEGKIISSLQLNQYKLLLNSKVYNTSYVVGVSTLPEGRGAGYMNKVMKFTLNELYKKGQLVSILMPIDYRLYRRFGYEHCYDQIEYTINTDDLKNFKSSGKMIKSNLSQIDDLIQIDRTFLNEVNGNVLKDEHYYENLFKEIQSEDGFLYIHEGNEKDGYIVYFLQEDKMFVRELFYKNIDALKSMLKFIYNHNTQCKIVTISTPTIDKIRFILDNPKDSDIKIKPFMMGRVINVKKFIEDIDIENDINSSFNLLIEDKFIDENNGLFKISIQNKKVSVEQLDKKGAEKPQEDFDIKLDINTLTQLSFSYIDVNEAIFLNDIKDVSEETLETLNCIFSKKNNYINEYI”, the “soluble on expression in E. coli” value is recorded as “not soluble”.

As to “MKVVVQIKDFDKVPQALRSVINLYNDIKDAEIEVVLHQSAIKALLKDSDTRSIIEDLIKKNILIVGCENSIRSQNLSHDQLIPGIKIVTSGVGEIVRKQSEGWIYLAL”, the “soluble on expression in E. coli” value is on record as “soluble”.

On to “MHIDLRQLRHFIALHEHRSFVAAALAVNLSQSAFSRSIQALEHSAGCRLVDRAAKDLRPTKQGLIVLEHARRLVSGAHNLANEIALFNGLEAGELRFGAGPAPATWLVPRAVGRFNVRYPKARVSFQVEHWQALNRRLQAEEFEFFVADTRHFEADPQYRTSRLRPRRWHFCCREGHPLAARESVSAEELLSFPLATNISPPNIRKVLVDLSGRPDFRPAIECENGHSLLGVVLASDAIGISSGLGDLAPPGQGGLRPLRVRELPDDLDELHTRYGIVSRAGYSLSPLAEAMIDELKRVDDAT”, for which the “soluble on expression in E. coli” value was “not soluble”.

Turning to “MTVDDIMVPRSEIIGIDINDDWKSILRQLSHSPHGRIVLYRDSLDDAISMLRVREAWRLMSEKKEFTKETMLRAADEIYFVPEGTPLSTQLVKFQRNKKKVGLVVNEYGDIQGLVTVEDILEEIVGDFTTSMSPTLAEEVTPQNDGSVIIDGTANVREINKAFNWHLPEDDARTVNGVILEALEEIPVAGTRVRIGKYDIDILDVQDNMIKQVKVFPVKPLRESVAE”, the “soluble on expression in E. coli” value is recorded as “not soluble”.

Regarding “MKIRYKFGVWMLCLMFPALVWAENAKSICTSFTQQGRQVTFHLADSAALQLQLCSPSVVRIWFSPDGKLQRRNASFAVINEELEDVGTVHVDEQAACYEIFTSKLRIRVNKSPMSIQIFDKYQKLLFSDYADKGHVSEGTKKVEYKTLRRDEHFFGLGEKTGKMDRRGESYKMWNSDKPCYSVVEDPLYKSIPFFMSSYRYGIFLDNTYKTEFKFGTESRDYYSFEAPDGEMIYYFIFGKDYKEILSQYVGLTGKPIMPPKWALGFAQCRGLLTSEKLSREIAEGYRTRGIPCDIIYQDIGWTEHLQDFEWRKGNYGHPKKMLADLKEMGFKVVVSQDPVISQANKKQWEEADRLGYFVKDSTNGKSYDMPWPWGGNCGVVDFTLPAVADWWGTYQQKPIDDGISGFWTDMGEPAWSNEEQTERLVMKHHLGMHDEIHNVYGLTWDKVVKEQFEKRNPNRRVFQMTRAAYAGLQRYTFGWTGDCGNGDDVLQGWGQLANQIPVILSAGLGVIPFTTCDITGYCGDIEDYHPFAELYTRWIQFGAFNPLSRIHHEGDNPVEPWLFGPEAEKNAKEAIELKYRLLPYIYTYAREAHDTGLPIMRPLFLEYPADMETFSTDGQFLFGQELLVAPVVKKGARTKNVYLPEGTWIDYNNKQTVYTGEQWTTVEAPLSCIPMFVKQGSIIPTMPVMNYTHEKPVYPLIFEVFPAPKGEEASFTLYEDEGEDLGYQRDEFAKTPVRFRTEEGGYLLSVGAREGKGYAVPAPRNFIFRMYLKTAPKGVTVQGKKVKKVKPERLEENPDDDTESMVWSWDKATGICSLRMPDRGEESRISLRL”, the “soluble on expression in E. coli” value is “not soluble”.

Consider “MGSDKIHHHHHHMLNQQWLTTFIKLVEVGHFTHTAEQLFMTQPGVSQHIKKLEQQVGVDLLIRIGKSFELTEAGIVLYQQALVWQQQQQQVLSQLAVDDEHVGDCRLACSGSMALLLYPHLIDYQLPYSQLQIYLEAAPNKRIIDSVMTNTIDVGIITQPINMDELVVTPLAAQSLCLVLPQSYLHQSVTFEQLMELGMVSHPDAMHYWSQIVGQYFTKKQALALQVPIRSYVNQLNQILVPVAKGLAFAVLPQFAVDHFGQQQHIRVASFTTEQANNVVVSEPLFIIYKKHRPLARRYGPIIDKIKQLVK”, for which the “soluble on expression in E. coli” value is on record as “not soluble”.
